Results published in article PMC2171418 (The Journal of Cell Biology, 2005).
Blank lines part the entries; values can stand above or below the binder they belong to.

Target: Mlp2p–protein A (PrA) (S. cerevisiae, UniProt P40457 1-1679)
Experiment: far-Western, overlay or dot blot

Sequence of Mlp2p–protein A (PrA) (P40457 whole entry): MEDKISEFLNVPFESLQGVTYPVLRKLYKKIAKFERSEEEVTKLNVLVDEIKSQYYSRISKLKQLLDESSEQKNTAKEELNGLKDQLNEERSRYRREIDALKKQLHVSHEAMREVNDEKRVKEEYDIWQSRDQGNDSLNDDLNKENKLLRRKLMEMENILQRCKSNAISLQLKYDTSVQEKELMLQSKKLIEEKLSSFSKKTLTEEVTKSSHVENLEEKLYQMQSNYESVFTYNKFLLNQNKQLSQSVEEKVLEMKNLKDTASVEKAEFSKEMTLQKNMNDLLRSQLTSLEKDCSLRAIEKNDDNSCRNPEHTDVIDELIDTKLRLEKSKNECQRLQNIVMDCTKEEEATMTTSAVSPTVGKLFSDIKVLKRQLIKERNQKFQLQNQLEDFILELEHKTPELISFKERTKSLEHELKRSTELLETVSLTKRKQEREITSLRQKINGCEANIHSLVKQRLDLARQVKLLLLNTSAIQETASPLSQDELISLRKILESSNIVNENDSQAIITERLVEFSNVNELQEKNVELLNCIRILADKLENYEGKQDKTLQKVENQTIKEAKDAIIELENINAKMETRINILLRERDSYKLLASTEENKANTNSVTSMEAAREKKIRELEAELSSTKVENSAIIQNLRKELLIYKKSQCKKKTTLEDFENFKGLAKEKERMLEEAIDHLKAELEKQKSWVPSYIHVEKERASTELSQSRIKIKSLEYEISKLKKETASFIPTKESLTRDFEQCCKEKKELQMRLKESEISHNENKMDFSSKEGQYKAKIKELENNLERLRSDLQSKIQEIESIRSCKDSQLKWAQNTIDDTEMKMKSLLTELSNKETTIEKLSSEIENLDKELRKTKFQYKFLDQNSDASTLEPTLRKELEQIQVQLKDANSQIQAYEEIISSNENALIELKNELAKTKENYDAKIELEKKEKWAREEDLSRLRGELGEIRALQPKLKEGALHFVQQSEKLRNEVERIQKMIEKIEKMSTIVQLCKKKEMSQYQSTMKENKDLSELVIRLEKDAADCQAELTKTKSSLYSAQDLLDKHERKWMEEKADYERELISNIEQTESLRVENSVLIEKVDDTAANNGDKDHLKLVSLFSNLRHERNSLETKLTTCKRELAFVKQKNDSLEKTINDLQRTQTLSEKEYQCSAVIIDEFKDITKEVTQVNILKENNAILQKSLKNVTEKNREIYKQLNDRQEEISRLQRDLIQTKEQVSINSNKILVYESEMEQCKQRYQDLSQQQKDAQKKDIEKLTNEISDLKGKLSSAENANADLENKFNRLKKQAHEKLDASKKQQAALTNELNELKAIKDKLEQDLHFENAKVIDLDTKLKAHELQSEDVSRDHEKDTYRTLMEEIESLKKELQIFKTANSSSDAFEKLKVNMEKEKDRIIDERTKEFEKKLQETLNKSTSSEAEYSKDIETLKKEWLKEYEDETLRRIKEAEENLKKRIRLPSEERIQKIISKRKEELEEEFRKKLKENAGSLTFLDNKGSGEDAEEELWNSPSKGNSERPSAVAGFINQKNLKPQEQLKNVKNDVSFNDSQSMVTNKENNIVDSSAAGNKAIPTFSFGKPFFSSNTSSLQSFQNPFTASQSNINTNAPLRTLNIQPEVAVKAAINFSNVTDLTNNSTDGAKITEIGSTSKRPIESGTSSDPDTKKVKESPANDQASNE

binding result: binds
B1: Spc110p (natural protein, UniProt P32380 1-944, looked up)
chain: MDEASHLPNGSLKNMEFTPVGFIKSKRNTTQTQVVSPTKVPNANNGDENEGPVKKRQRRSIDDTIDSTRLFSEASQFDDSFPEIKANIPPSPRSGNVDKSRKRNLIDDLKKDVPMSQPLKEQEVREHQMKKERFDRALESKLLGKRHITYANSDISNKELYINEIKSLKHEIKELRKEKNDTLNNYDTLEEETDDLKNRLQALEKELDAKNKIVNSRKVDDHSGCIEEREQMERKLAELERKLKTVKDQVLELENNSDVQSLKLRSKEDELKNLMNELNELKSNAEEKDTQLEFKKNELRKRTNELNELKIKSDEMDLQLKQKQNESKRLKDELNELETKFSENGSQSSAKENELKMLKNKIAELEEEISTKNSQLIAKEGKLASLMAQLTQLESKLNQRDSQLGSREEELKKTNDKLQKDIRIAREETVSKDERIIDLQKKVKQLENDLFVIKKTHSESKTITDNELESKDKLIKILENDLKVAQEKYSKMEKELKEREFNYKISESKLEDEKTTLNEKISNLAAENSQLKNKIEDNSTATHHMKENYEKQLESLRKDIEEYKESAKDSEDKIEELKIRIAENSAKVSEKRSKDIKQKDEQISDLTQNLKLQEDEISSLKSIIDRYKKDFNQLKSEQSNIQHDLNLQILNLENKLIESEDELKSLRDSQKIEIENWKRKYNNLSLENDRLLTEKESASDKEREISILNRKLDEMDKEKWNLQESKEKYKRELQKVITANDRLRREKEELNENSNNIRIMEDKMTRIKKNYLSEITSLQEENRRLEERLILNERRKDNDSTMQLNDIISYYKLKYHSEVRHNNDLKVINDYLNKVLALGTRRLRLDTRKGEHSLNISLPDDDELDRDYYNSHVYTRYHDYEYPLRFNLNRRGPYFERRLSFKTVALLVLACVRMKRIAFYRRSDDNRLRILRDRIESSSGRISW

binding result: binds
B2: Spc42p (natural protein, UniProt P36094 1-363, looked up)
chain: MNGSPTPKRYSSKSSRLYDDYYNIPYQYSNPTPMNRDYNDVGSRINADKLVPEEYKRNTEFINKAVQQNKELNFKLREKQNEIFELKKIAETLRSKLEKYVDITKKLEDQNLNLQIKISDLEKKLSDANSTFKEMRFPKVKDPMVDDDPVSENYDQINVPKHRAPDATGNPRTTNKVSNTSDQDSRLKAIERTLSVLTNYVMRSEDGNNDRMSPLPSPLNTILPINNRLNFQEPKRYNPTVKVNPSDDDIMMYESAELKRVEEEIEELKRKILVRKKHDLRKLSLNNQLQELQSMMDGDDNIKLDNVSKHNHATHRHSSQSSRDYSPSSDACLECSNDLYEKNRVKPENNMSETFATPTPNNR

binding result: binds
B3: Spc29p (natural protein, UniProt P33419 1-253, looked up)
chain: MDYSNFGNSASKKFQDDTLNRVRKEHEEALKKLREENFSSNTSELGNKKHYRAQERMSSPLHRLSPTGKSDDRKVKSPLDDKLRRQLREGNTRLPPPPFSSYGMPPTNRSNLDRIRRRTSSPVRTDKFASQNVIDDQRLEIKYLERIVYDQGTVIDNLTSRITRLESFILNSISDRGDKNFASLEHSRSFSGFPTNKTYGLQMGGLYENDMPYRRSSDNINKEGAREDRSSQIHIENESTEDILKILSSSFHN
